From the nanobody polyreactivity screen of Harvey et al. (2022)

Assay: yeast display, Sf9 membrane polyspecificity reagent, FACS + sequencing; frameworks hold sequencing errors
Summary of the method: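 Polyreactivity labels are assigned by the sorting gate from which each nanobody was recovered. The gates were low and high (top ~1%), set on anti-HA fluorescence for expression and streptavidin fluorescence for reagent binding. Before sorting, galactose-induced (36–48 hours) yeast display cells were stained for 1 hour at 4 °C with 10% biotinylated, detergent-solubilized Sf9 membrane reagent.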

Row | Sequence | polyreactivity (PSR sort gate)
1 | QVQLVESGGGLVHAGGSLRLSCAASGRTFKFYAMGWYRQAPGKERELVAAISGSGGTTRYADSVKGRFTISRDNAKNTVYLQMNSLKPEDTAVYYCAARPPGLALEYGYWGQGTQVTVSS | high polyreactivity
2 | QVQLVESGGGLVHAGGSLRLSCAASGRTFVSYAMGWYRQAPGKERELVAAITNAGSTYYADSVKGRFTISRDNAKNTVYLQMNSLKPEDTAVYYCAATYWDYWGYGYDYWGQGTQVTVSS | high polyreactivity
3 | QVQLVESGGGLVHAGGSLRLSCAASGRTVKNNAMGWYRQSPGKERDLVAAISSTGSTNYADSVKGRFTISRDNAKNPVYLQMNSLKPADTAVYYCAAEGIFRYYTQATMEYWGQGTQVTVSS | low polyreactivity
4 | QVQLVESGGGLVHAGGSLRLSCAASGSIFGRYVMGWYRQAPGKERELVAAITRSGGSTYYADSVKGRFTISRDNAKNTVYLQMNSLKPEDTAVYYCNADVNFIDDDYWGHGTQVTVSS | low polyreactivity
5 | QVQLVESGGGLVHAGGSLRLSCAASGSIFIYYAMGWYRQPPGKERELVAAIDRSGGNTYYADSVKGRFTISRDYAKTSVYLEMNSLKPEDTAVDYCAAQVHRRVQYDYWGQRTQVTVSS | high polyreactivity
6 | QVQLVESGGGLVHAGGSLRLSCAASGSIFPSNAMGWYREAPGKERELVAAISQSGGRTYYADSVKGRFTISRDNAKNTVYLQMNSLKPEDTAVYYCAADHRRAGMDYWGQGTQVTVSS | low polyreactivity
7 | QVQLVESGGGLVHAGGSLRLSCAASGSIFTWNGMGWYRQAPGKERELVAGMSYSGGITYTDSVKGRFTISRDNAKNTVYLQMNSLKPEDTAVYYCNARSKVAYYRHYYWGQGTQVTVSS | low polyreactivity
8 | QVQLVESGGGLVHAGGSLRLSCAASGSISTRNAMGWYRQAPGKDRELVASITSGGSTYYADSVKGRFTISRDNAKNTVYLQMNSLKPEDTAVYYCAARRRRPWGYGYGYWGQGTQVTVSS | high polyreactivity
9 | QVQLVESGGGLVHAGGSLRLSCAASGSTFDKYAMGWYRQAPGKERELVAAITWGGGSTYYADSVKGRFTISRDYAKNTVYLQMNSLKPEDTAVYYCNAYRVYAWIEYNYWGQGTQVTVSS | low polyreactivity
10 | QVQLVESGGGLVHAGGSLRLSCAASGSTFQLNAMGWYRQAPGKERELVAAISTRGGSTYYADSLKGRFTISRDNAKNTVYLQMNSLKPEDTAVYYCAARLYTRRDYWGQATQVTVSS | high polyreactivity
11 | QVQLVESGGGLVHAGGSLRLSCAASGSTFTRNAMGWYRQAPGKERELVATISWRSGSTYYADSVKGRFTISRDNAKNTVYLQMNSLKQEDTAGYYCAADYLNIYNYWGQGTQVTVSS | high polyreactivity
12 | QVQLVESGGGLVHAGGSLRLSCAASGSTFVRNAMGWYRPAPGKERQLVAAITSRGGSTYYADSVKGRFTISRDNAKNTVYLQMISLKPEDTAVYYCAARFGVKRGQYDYWGQGTQVTVSS | high polyreactivity
13 | QVQLVESGGGLVHAGGSLRLSCAASGSTFYSNVMGWYRQAPGKERELVAAISRSGGSTYYADSVKGRFTISRDNAKNTVYLQMNSLKAEDTAVYYCNRLRAPVRGDYWGQGTQVTVSS | high polyreactivity
14 | QVQLVESGGGLVHAGGSLRLSCAASGYTFDSYTMGWYRQAPGKERELVAAISGRGGSTYYADSVKGRFTISRDNAKNTVYIQMNSLKPEDTAVYYCNTYPPIGYDYWGQGTQVTVSS | low polyreactivity
15 | QVQLVESGGGLVHAGGSLRLSCAASGYTFPLYAMGWYRQAPGKERELVADINIGGASTYYADSVKGRFTISRDNAKNTVYLQMNSLKPEDTAVYYCAKEYYDGYFPTFDYDYWGQGTQVTVSS | low polyreactivity
16 | QVQLVESGGGLVHAGGSLRLSCAASGYTFPLYAMGWYRQAPGKERELVAGINWRGGSTYYADSVKCRFTISRDNAKNTVYLQIKSLKPEDTAVYYCAADFSRYYTGGYDYWGQGTQVTVSS | low polyreactivity

Row | Sequence | polyreactivity (PSR sort gate)
17 | QVQLVESGGGLVHAGGSLRLSCAASGYTFQAYAMGWYRQPPGKERELVAAISFSSGSTYYADSVKGRFTISRDNAKNTVYLQMNSLKPEDTAVYDCATDNWSVNGGYNYWGQGTQVTVSS | low polyreactivity
18 | QVQLVESGGGLVHAGGSLRLSCAAYGSIFSKYVMGGSREAPGKERELVAAISWSGTRTYYADSVMGRFTISRDNAKNTVYLQMNSLKPEDTAVYYCAARRLYSGHQYDYWGQGTQVTVSS | high polyreactivity
19 | QVQLVESGGGLVHAGGSLRLSCAAYGSIFYSYAMGWYRQAPGKERELVAAITSVGNTNYADSVKGRFTISRDNAKNTVYLQMNSLKPEDTAVYYYWGQGTQVTVSS | low polyreactivity
20 | QVQLVESGGGLVHAGGSLRLSCADSGSTLGSNAMGWYRQAPGKERELVAAITWSGGTTYYADSVKGRFTISRDNAKNTVYLQMNSLKPEDTAVYYCATGQSVIYRYEYWGQGTQVTVSS | low polyreactivity
21 | QVQLVESGGGLVHAGGSLRLSCAPSGRTFPRYAMGWYRQAPGKERELVAAISVRAGITYYADSVKGRFTISRDNAKNTVYLQMNSLKPEDTAVYYCDKEHSSTSYDEGDYWGQGTQVTVSS | low polyreactivity
22 | QVQLVESGGGLVHAGGSLRLSCASSGSALFWNAMGWYRQAPGKERELVATITNSGGSTYYADSVKGRFTISRDNAKNTVYLQMNSLKPEDTAVYYCNADESAYWKLRHGLGSDSWGQGTQVTVSS | low polyreactivity
23 | QVQLVESGGGLVHAGGSLRLSCDASGIIFFIYTMGWYRQAPGKERELVAVITRGGRTNYADSVKGRFTISRDNAKNTVYLQMNSLKPEDTAVYYCAAKGSRSYYWGQGTQVNVSS | high polyreactivity
24 | QVQLVESGGGLVHAGGSLRLSCDASGITFGPYGMGWYRQAHGKEREFVATITTIGGITYYADSVKGRFTISRDNAKNTFYLQMNSLKPEDTAVYYCAAPWFHGYDALVDYWGQGTQVTVSS | low polyreactivity
25 | QVQLVESGGGLVHAGGTLRLSCAASGGIFYHYTMGWYRQAPGKERELVASIRVSGGRTYNADSVTGRFTISRDNAKNTVYLQMNSLKPQDSAVYFCNARGSWYQPTYDYWGQGTQVTVSS | high polyreactivity
26 | QVQLVESGGGLVHEGGSLRLSFAASGPTFYRYTMGWYRQAPGKERELVATITGGGSTNYADSVKGRFTISRDNAKNTVYLQMNSLKPEDTAVYYCARAVVQSRGPPRYKTPYDYWGQGTQVTVSS | low polyreactivity
27 | QVQLVESGGGLVKAGGILRLICVASGRTFLRYGMGWYRQAPGKERELVAAISIVGNTYYADSVKGRFTISRDNAKNTVYLQMNSLKPEDTAVYYCAAGRRFGRDYWGQGTQVTVSS | high polyreactivity
28 | QVQLVESGGGLVKAGGILRLSCAASGSTFWKYAMGWYRQAPGKERELVAAINSGGSTYYADSVKGRFTISRDNAKNTVYLQMNSLKPEDTAVYYCAAVYVDRRKRSYYWGQGTQVTVSS | high polyreactivity
29 | QVQLVESGGGLVKAGGRLRLSSAASGSIFASYSIGWYRQAPWKERELVAAITVRGGRTYYADSVKGRFTISRDNAKNTVYLQMNSLKPEDTAVYYCAAVGKNRSWYDYWGQGTQVTVSS | high polyreactivity
30 | QVQLVESGGGLVKAGGSLRFSCAASGSIFHPYELGWKTQAPRKESDLVAGISRSGTSTYYADSVKGRFTISRDNAKNTVYLQMNSLKPEDTAVYYCYKVLVGSNRGEYDYWGQGTQVTVSS | low polyreactivity
31 | QVQLVESGGGLVKAGGSLRLSCAASGFIFKRNVMGWYRQAPGKETELVARISSRGGSTYYADSVKGRFTISRDNAKNTVYLQMNSLKPEDTEVYYCAADFGTIRVYSGDYWGQGTQVTVSS | high polyreactivity
32 | QVQLVESGGGLVKAGGSLRLSCAASGFIFTQNAMGWYRQAPGKERELVAAISGTGGSTYYADSVKGRFTISRDNAKNTVYLQMNSLKPEDTAVYYCAARRRQEHVGRSSYARYDYWGQGTQVTVSS | high polyreactivity
